{
  "source": "paper PMC3653351",
  "about": "(The Journal of Cell Biology, 2013)",
  "key": {"[1]": {"molecular_target": "Myc-PK-SV40NLS (not stated | SV40)", "assay": "SEC"}, "[2]": {"molecular_target": "Myc-PK-TprNLS", "assay": "SEC"}, "[3]": {"molecular_target": "GST-SV40NLS (SV40)", "assay": "ELISA"}, "[4]": {"molecular_target": "Recombinant KPNA2/Importin-β (UniProt P52292;Q14974)", "sequence (Q14974 whole entry, one chain of several)": "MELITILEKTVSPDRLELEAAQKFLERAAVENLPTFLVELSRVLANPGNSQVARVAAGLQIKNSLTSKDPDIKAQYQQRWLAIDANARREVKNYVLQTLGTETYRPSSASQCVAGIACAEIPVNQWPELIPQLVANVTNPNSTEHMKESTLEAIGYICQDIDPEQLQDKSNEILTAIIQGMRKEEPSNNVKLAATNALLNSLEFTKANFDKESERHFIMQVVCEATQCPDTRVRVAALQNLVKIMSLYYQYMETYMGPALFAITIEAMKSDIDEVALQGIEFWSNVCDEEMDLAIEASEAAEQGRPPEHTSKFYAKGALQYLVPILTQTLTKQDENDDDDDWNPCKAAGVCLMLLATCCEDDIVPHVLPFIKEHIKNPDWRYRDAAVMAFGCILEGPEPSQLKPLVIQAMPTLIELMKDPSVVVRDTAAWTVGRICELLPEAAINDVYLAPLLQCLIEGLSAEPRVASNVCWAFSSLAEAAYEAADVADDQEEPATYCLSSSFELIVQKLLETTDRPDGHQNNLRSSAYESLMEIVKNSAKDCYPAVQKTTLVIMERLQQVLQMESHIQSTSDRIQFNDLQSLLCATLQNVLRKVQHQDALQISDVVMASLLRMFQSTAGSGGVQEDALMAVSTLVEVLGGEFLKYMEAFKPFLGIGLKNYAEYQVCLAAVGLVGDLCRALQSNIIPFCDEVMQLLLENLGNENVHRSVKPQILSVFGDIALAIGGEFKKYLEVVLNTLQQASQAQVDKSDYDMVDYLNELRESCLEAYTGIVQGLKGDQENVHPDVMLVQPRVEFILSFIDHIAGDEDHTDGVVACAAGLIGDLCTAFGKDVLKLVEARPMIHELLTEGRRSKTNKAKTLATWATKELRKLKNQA", "assay": "ELISA"}},
  "data": [
    {"molecule": "Myc-PK-SV40NLS", "values": [
      {"measurement": "stoichiometry N", "setting": "[1]", "result": 4}
    ]},
    {"molecule": "Myc-PK-TprNLS", "values": [
      {"measurement": "stoichiometry N", "setting": "[2]", "result": 4}
    ]},
    {"molecule": "Recombinant KPNA2/Importin-β (from UniProt P52292;Q14974) (complex)", "values": [
      {"measurement": "Kd", "setting": "[3]", "result": 10.5, "unit": "nM"}
    ]},
    {"molecule": "GST-TprNLS (domain or fragment) STAVFGTVSATPSSSLPKRTREEEEDSTIEASDQVSDDTVEMPLPKKLKSVTPVGT", "values": [
      {"measurement": "Kd", "setting": "[4]", "result": 3.2, "unit": "nM"}
    ]}
  ]
}
